Results taken from patent US12624096B2, “Anti-tau antibodies and methods of use thereof” (GTInvent Limited, priority 2020, dated 2026).
“Also recorded” adds a separate entry of the source.

Tests used:
[1] = biological target: dGA (Homo sapiens, UniProt P10636); test: Biacore X100 SPR, scAb captured via anti-HuCk, dGA as analyte; assay type: binding; conditions: dissociation rate
Description: (§1) Surface plasmon resonance (SPR) is widely regarded as the gold standard for real time measurement of protein-protein interactions such as antibody binding. All SPR experiments were carried out using a Biacore X100 machine and HBS EP+ running buffer (GE Healthcare). A ‘capture’ method was followed for affinity measurements, where an anti-human constant kappa chain (HuCk) antibody was conjugated to the surface of a CM5 sensor chip using an amine coupling kit and scAb molecules were immobilised via their HuCk domain. Amine coupling is a very common approach for immobilising the ligand to the chip surface. The chip surface has a dextran matrix derivatised with carboxyl groups, which after activation with N-hydroxysuccinimide (NHS) and 1-ethyl-3-(3-dimethylaminopropyl) carbodiimide (EDC), form reactive succinimide esters which allows the covalent capturing of the ligand via any available primary amine groups (e.g. Lysine) on the ligand (in this case anti-HuCk antibody). The capture antibody was diluted 1/100 in 10 mM Sodium acetate buffer pH 5.0 and passed over the activated chip surface for a period of at least 420 s. Final ligand immobilisation levels over 12,000 RU were deemed to be satisfactory.
(§2) Following immobilisation, the level of each scAb to be captured was identified using the standard SPR equation with a theoretical RMax of 100 RU. Analyte MW refers to the molecular weight of hT40 or dGA/dGAE molecules, while ligand MW refers to the molecular weight of the scAbs tested. RL is the desired capture level and S refers to the stoichiometric ratio:
(§3) The scAb to be tested was added only to flow cell 2 so that flow cell 1 could act as a control to subtract any interaction with the analyte and the chip surface. Both single and multi-cycle runs were utilised using wizards developed in the Biacore X100 control software which are both accepted methods of kinetic analysis (Karlsson, R., et al. Analyzing a kinetic titration series using affinity biosensors (2006) Analytical Biochemistry 349:136-47). The multi-cycle protocol was as follows-Three start-up cycles composed of an initial capture, to the desired level, of the scAb to be tested was performed followed by a 30 s injection of glycine buffer pH 2.0 after each cycle to regenerate the chip surface. The regeneration step removed any captured scAb whilst leaving the capture antibody intact and able to repeat the capture for the next cycle. Following three start-up cycles increasing concentrations (0.15625 nM-100 nM) of the target to be tested were added to the chip surface after the desired scAb capture. The target was added for a 120 s association period and 420 s dissociation period followed by another regeneration, 30 s injection of glycine buffer pH 2.0 in between each cycle.
(§4) The single cycle kinetics protocol was similar and utilised the same level of scAb capture. Three start-up cycles were used followed by 5 increasing concentrations of the analyte (6.25 nM-100 nM) for an association period of 120 s followed by a dissociation period of 420 s for each concentration. In single cycle kinetics the regeneration step was performed only after the final analyte concentration was added. Binding responses were analysed in Biacore X100 evaluation software and data fitted to a 1:1 binding model to obtain kinetic and affinity characterisation.

[2] = tested on: hT40, dGA, dGAE and truncated tau fragments/peptides; test: Binding ELISA for epitope mapping with truncated tau proteins and biotinylated 13mer peptides; set-up: species or system human; conditions: direct binding ELISA
Description: A series of binding ELISA was performed using various truncated versions of the tau protein and 13mer peptide libraries spanning the entire hT40 molecule for mapping the epitopes of anti-tau scAbs (Full list of protein antigens used is given in Table 14). In general, ELISA plates were coated with 1 μg/ml hT40 or dGA or dGAE or other truncated versions of the protein and in the case of biotinylated peptides, plates were coated with 5 μg/ml Streptavidin followed by 1 μg/ml biotinylated peptide. The plates were blocked with 2% MPBS and scAb samples added at desired starting concentrations and double diluted across the plate. Binding was detected using anti-Human C Kappa HRP conjugated secondary antibody and the resulting immunoreaction was developed and absorbance values measured as described above.
Similarly, dGA binding ‘NS’, ‘S’ and ‘M’ group scAbs were subjected to further antigen binding ELISA using shorter tau proteins and biotinylated 13mer peptides as shown below (FIGS. 10A-F) and (FIGS. 11A-R).
For anti-tau mAb SPR measurements (Biacore X100™) and epitope mapping, the same methodologies described above (see Example 16) were followed.

[3] = biological target: hT40 (Homo sapiens, UniProt P10636); test: Biacore X100 SPR, scAb captured via anti-HuCk, hT40 as analyte; assay type: binding; conditions: scAb, Table 23, T441 (hT40)
Sequence of hT40 (P10636 1-441 isoform P10636-8): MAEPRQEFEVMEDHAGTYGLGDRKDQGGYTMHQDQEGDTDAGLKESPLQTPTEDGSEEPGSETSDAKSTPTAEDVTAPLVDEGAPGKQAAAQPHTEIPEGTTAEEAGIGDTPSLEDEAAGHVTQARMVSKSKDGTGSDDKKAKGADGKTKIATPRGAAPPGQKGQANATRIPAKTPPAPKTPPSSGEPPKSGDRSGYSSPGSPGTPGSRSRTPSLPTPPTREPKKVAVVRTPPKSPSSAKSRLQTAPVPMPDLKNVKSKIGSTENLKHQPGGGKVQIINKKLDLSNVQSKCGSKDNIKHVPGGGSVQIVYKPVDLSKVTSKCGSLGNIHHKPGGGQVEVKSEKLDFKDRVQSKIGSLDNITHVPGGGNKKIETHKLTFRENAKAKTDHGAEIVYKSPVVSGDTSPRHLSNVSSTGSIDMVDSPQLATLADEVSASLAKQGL
Description: as §1, with “The chip surface has a dextran matrix derivatised with carboxyl groups, which after activation with N-hydroxysuccinimide (NHS) and 1-ethyl-3-(3-dimethylaminopropyl) carbodiimide (EDC), form reactive succinimide esters which allows the covalent capturing of the ligand via any available primary amine groups (e.g. Lysine) on the ligand (in this case anti-HuCk antibody).” left out
as §2
as §3, with “The regeneration step removed any captured scAb whilst leaving the capture antibody intact and able to repeat the capture for the next cycle.” left out
as §4

[4] = tested on: alanine substituted 13mer tau peptides; test: Alanine scanning mutagenesis (ASM) peptide ELISA; assay type: binding, human; conditions: numbering according to SEQ ID NO: 1; description text 'may be'
Description: To further elucidate epitopes of the scAb panel, and identify the critical amino acids needed for binding, alanine scanning mutagenesis of the parent 13 aa peptides for scAbs CE2, S1D12, CA4 and S1G2 was performed. […] Briefly, 5 μg/ml streptavidin (Thermo Fisher) was adsorbed to Nunc 96-well MaxiSorp plates and following incubation at 37° C., for 1 h, the plates were washed as normal and blocked with 2% MPBS. N-terminally biotinylated peptides (Prolmmune Ltd) were added to the plates and incubated for 1 h at 37° C. Subsequently, test scAbs at starting concentrations of 100-500 nM was added and double diluted across the plate for each peptide and incubated for 1 h at 37° C. Rest of the ELISA was conducted as described above and the plates were read at absorbance 450 nm. Immunoreactivity of the scAb of interest was quantified as the % of scAb was bound for each peptide at a chosen concentration (FIG. 15-20).

[5] = biological target: htau40 (Homo sapiens, UniProt P10636); test: Biacore X100 SPR of anti-tau mAbs on immobilised htau40; assay type: binding
Sequence of htau40 (P10636 1-441 isoform P10636-8): as above
Description: For anti-tau mAb SPR measurements, htau40 was conjugated to the surface of a CM5 sensor chip using amine coupling as explained previously. Briefly, 2 μg/mL htau40 in 10 mM Sodium acetate buffer (pH 4.0) was passed over the activated chip surface (EDC/NHS) in flow cell 2 for a period for 45 s followed by blocking with 1 M ethanolamine-HCl PH 8.5. Flow cell 1 was set up as reference control and blocked simultaneously. Final immobilisation level of htau40 (Rmax) was approximately 250 RU. Following a minimum of three start-up cycles, increasing concentrations (0.78 nM-25 nM) of the mAb in HBS-EP+ buffer was added at a rate of 30 μL/min to the chip. The mAb was added for a 120 s association period and 600 s dissociation period followed by a regeneration cycle of 30 s injection of glycine buffer pH 1.5 in between each cycle. Binding responses were analysed in Biacore X100 evaluation software and data fitted to a 1:1 binding model to obtain kinetic and affinity characterisation.
For anti-tau mAb SPR measurements (Biacore X100™) and epitope mapping, the same methodologies described above (see Example 16) were followed. Kinetic rates and equilibrium binding constants of additional anti-tau mAbs and the regions recognised on hT40 are given in the Table 25 below

[6] = tested on: human tau and mouse tau; test: Western blot of WT, L66+/+ and L1+/+ mouse brain homogenates; assay type: binding; conditions: 20 μg protein, 5-month-old mice
Description: Protein equivalent to 20 μg from each brain extract was separated using 4-20% bis-tris gels and run in 1×MES buffer.
A band is detected in each sample (WT, L66^+/+ and L1^+/+) with an apparent molecular weight of approximately 55 kDa. This band most likely corresponds to endogenous mouse tau which is of a similar size. In the L66^+/+ samples, a second band running at approximately 68 kDa is also detected. The presence of numerous other bands indicates proteolytic truncation of tau within brain homogenates.

[7] = mAb, Table 27, immobilised hT40
[8] = newly converted mAbs, Table 25 (Example 28), hT40

Sequence of dGA (P10636 614-707): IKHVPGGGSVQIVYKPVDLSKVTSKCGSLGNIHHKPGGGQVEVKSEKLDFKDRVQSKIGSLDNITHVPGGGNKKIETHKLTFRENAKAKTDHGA

B1: CE2: anti-tau clone referred to as CE2 or E1B8, SEQ ID NO: 366 (protein)
scFv: QVQLQESGPSLVKPSQTLSLTCTVSGFSLTNYPVGWVRQAPGKALEWIGNIENDGSANYASALKSRLSITRDTSKNQVSLSLSSATTEDTAVYYCGREFGGSDGYTYFVDIDYWGPGLLVTVSSEGKSSGASGESKVDDQAVLTQPSSVSKSLGQSVSITCSGSSSNVGYGNYVSWFQQVPGSAPKILIYGATSRASGVPDRFSGSRSGNTATLTITSLQAEDEADYYCASYDGSSSGVFGSGTRLTVLG
modifications: CE2/E1B8 amino acid sequence
In the case of B1, the “Kd” value [1] is reported as 0.00242 s⁻¹, the “cross-reactivity of 'E' group scAbs using hT40, dGA and dGAE antigens” value [2] is reported as “cross-reacts with dGA; also recorded: specific binding to the tau peptide representing amino acids from 313-336” and the ka [3] is reported as 213700 M⁻¹ s⁻¹. The kd [3] was 0.001077 s⁻¹, the “Critical residues of the epitope” value [4] was 323 (G), 324 (S), 325 (L), 326 (G), 327 (N) and/or 328 (I) and the ka [5, 7] was 457900 M⁻¹ s⁻¹. It also gave a kd [5, 7] of 0.005218 s⁻¹, a ka [5, 8] of 323800 M⁻¹ s⁻¹ and a kd [5, 8] of 0.001367 s⁻¹.

B2: E2B7: anti-tau clone, SEQ ID NO: 254 (protein)
scFv: QVQLQESGPSLVKPSQTLSLTCTVSGFSLTSWGVAWVRQAPGKALEWLGTMRSGGGTEYNPALKSRLSITRDTSKSQVSLSLSSVTTEDMAMYYCARGYLSGIHYAWGRGLLVSVSSEGKSSGASGESKVDDQAVLTQLSSVSGSLGQRVSITCSGSSSNVGDGDYVGWFQQLPGSAPKLLIYSARNRASGVPDRFSGSRSGNTATLTITSLQAEDEADYYCASIDTSRSHIFGSGTRLTVLG
modifications: E2B7 amino acid sequence
With B2 the “cross-reactivity of 'E' group scAbs using hT40, dGA and dGAE antigens” value [2] was “specific dGAE binding”.

B3: CC7: anti-tau clone, SEQ ID NO: 365 (protein)
scFv: QVQLQESGPSLVKPSQTLSLTCTVSGFSLTSNAVIWVRQAPGKAPEWVALIDVDGDAAYDPALKSRLSITRDTSKSQVSLSLRSVTTEDTAVYYCARDYGSWGYVSDIDYWGPGLLVTVSSEGKSSGASGESKVDDRVVRTQPSSVSGSLGQRVSITCSGSYITGSSVGWFQQVPGSGLKTVIYDNNDRPSGVPDRFSGSKSGDTATLTISSLQAEDEADYYCASYDTSNIGLFGSGTRLTVLG
modifications: CC7 amino acid sequence
B3 was tested, and the ka [3] was 295700 M⁻¹ s⁻¹, the kd [3] was 0.0003659 s⁻¹ and the ka [5, 7] was 4.576e+06 M⁻¹ s⁻¹. The kd [5, 7] was 0.03164 s⁻¹ and the “bands detected in western blot of WT, L66+/+ and L1+/+ brain homogenates” value [6] was “show specificity for human tau”.

B4: NS2A1: anti-tau clone, SEQ ID NO: 220 (protein)
scFv: QVQLQESGPSLVKPSQTLSLTCTVSGFSLSTNSVGWVRQAPGKAPEWVAGIDTDGEEGFNPVLKSRLSITRDTSKSQVSLSLSNVTSEDTAVYYCGRSYRTDGLAYGYVQAIDYWGPGLLVTISSEGKSSGASGESKVDDQSVLTQPSSVSGSPGQTVSITCSGSYIGSSGVGWFQQLPGSGLRTIIVASDGRPSGVPDGFSMSKSGNTATLTISSLQAEDEADYFCGSSDRTQYTGLFGSGTRLTVLG
modifications: NS2A1 amino acid sequence
B4 was tested, and the “Kd” value [1] was 0.00102 s⁻¹, the ka [3] was 252100 M⁻¹ s⁻¹ and the kd [3] was 0.0007393 s⁻¹. It also gave a ka [5, 7] of 893700 M⁻¹ s⁻¹, a kd [5, 7] of 0.002621 s⁻¹ and a Kd ([5]; mAb, Table 27, read-out: kD (M) for hT40 binding) of 1e-08 M.
